Source: publication PMC5863699, “Sensing iron availability via the fragile [4Fe–4S] cluster of the bacterial transcriptional repressor RirA† †Electronic supplementary information (ESI) available. See DOI: 10.1039/c7sc02801f” (Chemical Science, 2017)

Target: the molecule itself
Assay: native MS; ESI-MS under non-denaturing conditions, positive ion mode; cluster-reconstituted [4Fe–4S] RirA, ~30 μM in cluster, 250 mM ammonium acetate pH 7.3; monomer to dimer

B1: Rhizobial iron regulator A (RirA) from Rhizobium leguminosarum (natural protein, UniProt Q9AE46 1-160, looked up)
chain: MRLTKQTNYAVRMLMYCAANDGHLSRIPEIAKAYGVSELFLFKILQPLNKAGLVETVRGRNGGVRLGKPAADISLFDVVRVTEDSFAMAECFEDDGEVECPLVDSCGLNSALRKALNAFFAVLSEYSIDDLVKARPQINFLLGITGEPAYRKPAIVAPAA
notes: RirA, Rhizobium leguminosarum strain 8401 (pRL1JI), rirA gene CAC35510, codon-optimised for E. coli; calculated mass of the monomer 17.4 kDa (apo predicted 17 442 Da, observed 17 441 Da); No tag is mentioned; It carries an iron–sulfur cluster as cofactor: [4Fe–4S] after reconstitution, and mainly [2Fe–2S] after 1 mM EDTA for 2.5 h; Less than 5% of the preparation was truncated, lacking 20 …
  stoichiometry N: 2
